How the values were obtained:
[1] = commercial SODs from Sigma set as specific activity reference; cited from earlier work
[2] = Gastric stability assay of SODs; type: in vitro ADME; settings: 37° C., reference activity at pH7.0 without stress
Description: Gastric stability was assayed with artificial gastric juice as stress condition. 20 μl SOD with appropriate dilution was added into 180 μl stress buffer (100 mM NaCl, 0.0013M HCl at pH3.0). The stress buffer with pepsin was prepared by adding 1.11 mg/ml pepsin (from porcine gastric mucosa, P7000, Sigma, 474 U/mg). The mixture was incubated at 37° C. in thermomixer for 0, 15, 30, 45, 60, 90, and 120 minutes separately. 10 μl sample extracted from the mixture was added into 90 μl activity buffer (K2HPO4/KH2PO4 mixed with final concentration of 100 mM PBS at pH7.0) as stop mixture. Then 20 μl stop mixture was added into 200 μl WST solution (or CytoC solution at pH7.8), and finally 20 μl coupled enzyme solution from kit was added to measure absorbance. The absorbance was measured at 450 nm for Sigma SOD kit (or 550 nm at pH 7.8) for 20 minutes at 37° C. (interval 40 sec, shake before first read). The activity at pH7.0 without stress condition was set as reference, and the residual activity at stress condition (pH3.0, pH3.0+pepsin) compared with reference was calculated as relative stability.

[3] = Nutritional model in piglets: growth performance (FCR); type: in vivo; settings: d 0-42, piglets, vs NC (22% CP)
Description: Experimental Unit: Slatted Floor Pens, 4 piglets per pen (2 barrows & 2 gilts per pen)
Feed Type: Starter (Day 0-21) and Grower (Day 21-42). MASH feed is employed, using a corn-soybean type commercial ration formulation with an increase of 5-6% crude protein compared to normal commercial rations. Test material is added to the feed beginning on Day 0 and continuing through Day 42.
Replication/piglets per treatment: Treatments 1-8 fed to 12 replicates each of 4 piglets (2 barrows+2 gilts) per replicate.
Piglet Source: Piglets (post-weaned, at 21 days of age, called Day 0) are collected in early am (day of placement or Day 0), weighed (2 barrows & 2 gilts per pen), and assigned to each experimental pen. Each piglet is weighed individually and assigned to a pen, with very high and very low body weights excluded from the study. After all piglets are assigned to a pen, the body weights are checked to ensure no treatment is more than 1 standard deviation from another treatment.

[4] = tested on: genes related to oxidative stress; test: Oxidative stress PCR array in duodenum and ileum of weaned piglets; type: in vivo; settings: duodenum, day 42, vs control group, p=0.019
Description: The objective of this study was to evaluate anti-oxidant enzymes supplementation (SOD and CAT) alone and in combination in early weaned piglets, and if these enzymes can potentially alleviate the oxidative stress impact on weaned piglets and consequently improve the growth performance. In the in vivo trial (example 3), plasma samples were collected at day 0 (baseline, weaning moment), day 14 and day 42 of the study for additional analysis. […]
Total RNA was extracted from tissues (stored at −20° C. in RNA later) by lysing tissue with FastPrep® 24 (MP Biomedicals, Illkirch, France), using the phenol-chloroform method (TRIzol reagent; Invitrogen, Invitrogen, Cergy Pontoise, France) followed by purification using RNeasy columns by automated method with the Qiacube HT (Qiagen, Courtaboeuf, France). The concentration of RNA was measured by NanoDrop ND-1000 Spectrophotometer (Thermo Fisher Scientific, Illkirch, France) and the purity was estimated by A260/A280 ratio. RNA integrity was assessed by using the Agilent 2100 Bioanalyzer (Agilent Technologies, Basel, Switzerland). The threshold of the RNA Integrity Number (RIN) was set at 7.5 to validate sufficient quality of the RNAs. […]
(§1) ANOVA was performed for plasmatic parameters and student test was calculated to evaluate the significance of the differences observed in gene expression.

[5] = tested on: reactive oxygen metabolites (ROM) and Plasma antioxidant capability (PAT); test: Oxidative stress index FRAS5 (d-ROM, PAT) in plasma; type: in vivo, piglets; settings: piglet plasma
Description: An oxidative stress index was calculated as the ratio of reactive oxygen metabolites (ROM) and Plasma antioxidant capability (PAT) determined in plasma and liver lysate samples. ROM and
PAT were analyzed using commercially methods (d-ROM fast test and PAT test) on FRAS5 instrument (Innovatics Laboratory, Philadelphia, USA). For d-ROM test, 10 μL of sample was mixed with an acidic buffer. Then, a chromogen was added, and measured photometrically at 505 nm. The results are expressed in UCarr (1 UCarr=0.08 mg of H2O2/dl). For PAT test, 10 μl of sample was added in a colored solution (mix of source ferric ions and chromogen). The intensity of chromatic change was measured at 505 nm. The results are expressed in UCor (1 UCor=1.4 μM of Vitamin C equivalent). The oxidative stress index was calculated as the ratio of d-ROMs test value to PAT test value.
as §1

Glutathione peroxidase = test: Plasma GPx activity (GPx determination KIT); type: in vivo; settings: piglets, day 42
Description: The concentration of total proteins was determined in liver lysate and plasma, using the Pierce™ BCA Protein Assay Kit (Thermo Fisher Scientific, Illkirch-Graffenstaden, France). The samples were processed following the supplier's recommendations. Plasma samples were diluted 100 times. 25 μL of standards or samples were added to 200 μL of working reagent and incubated 30 minutes at 37° C. The colorimetric intensity was measured at 562 nm. Results are expressed in μg of total protein per mL of sample.
The activity of the Glutathione peroxidase was determined using the GPx determination KIT (abcamab102530). Briefly, 40 μL of the colorimetric reaction mix was added to 100 μL of standards and 10 μL of cumene hydroperoxide was added to the standards and to the 50 μL of samples (Plasma samples were adjusted to bring 600 μg of total protein in the reaction). The absorbance at 340 nm was measured (A1), and after 5 min at 25° C., a second measurement was done (A2).
The GPx activity was calculated as follow:
B=NADPH amount that was decreased between T1 and T2 (in nmol).
T1=Time of the first reading (A1) (minutes).
T2=Time of second reading (A2) (minutes).
V=Pretreated sample volume added into the reaction well (mL).
D=Sample dilution factor.
as §1

Row | plasma GPx activity (Glutathione peroxidase) | Molecule | SOD specific activity (reference) [1] | Gastric stability: pH 3, +pepsin 15 min - residual activity value % ([2]; 15 min) | Gastric stability: pH 3, +pepsin 30 min - residual activity value % ([2]; 30 min) | FCR [3] | GPX1 gene fold change [4] | reactive oxygen metabolites (d-ROM) ([5]; both time point (day 14 and 42)) | plasmatic antioxidant capacity (PAT) ([5]; day 14, p<0.0001 between groups)
1 | – | r E. coli: commercial Sigma SOD; probably recombinant SOD bovine expressed in Escherichia coli (S9697) | 6108 U/mg EP | 43% | 43% | – | – | – | –
2 | significant increase | CAT: catalase feed enzyme: SEQ ID NO 7 in Examples 1-2; in Example 4 probably treatment 6 (Product C, SEQ ID NO 250) (protein, Aspergillus niger; mat_peptide (1)..(740)) MRHFWLLPAVAGIAGAQCPYLSGEMSFTQEQDNAGDTIEVTEQTIDNTLYVNDTGSYMTTDFGTPISDQYSLKAGRRGPTLLEDFIFRQKLQRFDHERVPERVVHARGAGAYGTFKSYADWSNVTAADFLSANEKETPMFCRFSTVVGFRGSVDTARDVHGHACRFYTDEGNYDIVGINFAPFFIQDAIQFPDLVHAIKPMPNNEIPQAATAHTSAWDFFSQQSTALHSALWLMSGNGIPRSFRHMNGYGVHSFRFVAANGTSKVVRYRWKSQQGVASLVWEEAQAAAGKNSDYHRQDLYNAIANGHYPKYELQAQIMDEADMLRFGFDLLDPTKLVPEEVVPYTPLGMMELNANPTNYFAEVEQAGFQPGHVVPGIDFTDDPLLQGRLFSYLDTQLTRHGGPNFEQIPVNRPRKPVHNNNRDGFGQQQIPTNNWAYTPNTMSNGYPMQANQTHGHGFFTSPYRYASGHLIREPSPTFHDHWSQPAMFWNSLIPAEQQMVVNAIVFENSKVNSPHVRKNVVNQLNMVNNNLAVRVARGLGLDEPSPNPTYYTSNKTSNVGTFGKPLLSIEGLQVGFLASNSHPESIKQGQAMAAQFSAAGVDLNIVTEAYADGVNTTYALSDAIDFDALIIADGVQSLFASPSLANQMNSTATSTLYPPARPYQILVDSFRYGKPVAAVGSGSAALKNAGIDTSRSGVYTGSSETTENIAKEVLKGLYTFRFVDRFALDE | – | – | – | significantly better than NC | 1.34 | increase | increase

From patent US20220218001A1, “REDOX ENZYMES IN ANIMAL FEED COMPOSITIONS” (Novozymes A/S, priority 2019, published 2022)
